Measured values: article PMC10572015

Legend:
[1] = biological target: endogenous PTB-containing squid proteins
[2] = biological target: phosphotyrosine-binding domain (PTB)-containing axonal proteins

Substance	mean anterograde FAT rate, vesicle motility assay in isolated squid axoplasm; 100 nM GST–AICD co-perfused with an excess of Fe65 PTB2-6xHis as competitor (GST–AICD alone 1.20; Buffer X/2 1.64) [1]	mean retrograde FAT rate, vesicle motility assay in isolated squid axoplasm; 100 nM GST–AICD co-perfused with an excess of Fe65 PTB2-6xHis as competitor (GST–AICD alone 1.02; Buffer X/2 1.23) [1]	mean anterograde FAT rate, vesicle motility assay in isolated squid axoplasm perfused with 100 nM GST–AICD (Buffer X/2 1.64) [2]	mean retrograde FAT rate, vesicle motility assay in isolated squid axoplasm perfused with 100 nM GST–AICD (Buffer X/2 1.23) [2]	mean anterograde FAT rate, vesicle motility assay in isolated squid axoplasm perfused with 100 nM GST–AICDΔNPTY (GST–AICD 1.20; Buffer X/2 1.64) [2]	mean retrograde FAT rate, vesicle motility assay in isolated squid axoplasm perfused with 100 nM GST–AICDΔNPTY (GST–AICD 1.02; Buffer X/2 1.23) [2]
GST–AICD (APP intracellular domain fused to glutathione-S-transferase) (domain or fragment)	1.4 µm/s	1.19 µm/s	1.2 µm/s	1.02 µm/s		
GST–AICDΔNPTY (domain or fragment)					1.5 µm/s	1.14 µm/s
